Changes are numbered by the printed parent chain. Numbered stars: 1 amine (or outer) side, 2 acyl side, 3 side chain; on linkers, the order of the positions; unused ones are H or OH. Square brackets hold non-standard residues; d marks the D form. Side chains are listed from the residue outwards. Ends that are not written are not given here. * marks the point of attachment. C18 diacid = O=C(O)CCCCCCCCCCCCCCCCC(=O)*; γGlu = O=C(O)[C@H](CCC(=O)[*:2])N[*:1]; AEEA = NCCOCCOCC(=O)O; Aib = CC(C)(N)C(=O)O
T1: human gastric inhibitory peptide receptor (GIPR) (human, UniProt P48546 22-466)
T1 sequence (looked up): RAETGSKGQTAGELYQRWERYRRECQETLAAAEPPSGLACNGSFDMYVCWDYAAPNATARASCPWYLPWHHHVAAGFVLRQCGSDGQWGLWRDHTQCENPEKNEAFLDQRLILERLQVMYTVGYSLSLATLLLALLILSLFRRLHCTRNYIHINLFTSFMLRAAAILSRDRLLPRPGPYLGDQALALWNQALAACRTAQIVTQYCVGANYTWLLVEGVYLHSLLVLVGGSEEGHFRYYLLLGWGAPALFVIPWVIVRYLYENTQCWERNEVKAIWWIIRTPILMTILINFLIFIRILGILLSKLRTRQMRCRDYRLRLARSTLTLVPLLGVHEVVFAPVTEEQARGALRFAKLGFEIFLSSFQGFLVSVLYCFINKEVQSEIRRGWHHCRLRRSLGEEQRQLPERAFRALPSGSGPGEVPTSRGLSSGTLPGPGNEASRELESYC

B1: Example 315 (peptide)
peptide: YXEGTFTSDYSILLDKKAQXAFIEYLIEGGPSSGAPPPS
modifications: Aib2, (2-[2-(2-Amino-ethoxy)-ethoxy]-acetyl)2-(γ-Glu)-CO-(CH2)16-CO2H on K17, Aib20, C-terminal NH2
B2: Example 299 (peptide)
peptide: Y[Aib]EGTFTSDYSILLDKK([AEEA-AEEA-γGlu-C18 diacid])AQ[Aib]AFLEYLIEGGPSSG-NH2
modifications: N-terminus assumed
SMILES: CC[C@H](C)[C@H](NC(=O)[C@H](CC(C)C)NC(=O)[C@H](Cc1ccc(O)cc1)NC(=O)[C@H](CCC(=O)O)NC(=O)[C@H](CC(C)C)NC(=O)[C@H](Cc1ccccc1)NC(=O)[C@H](C)NC(=O)C(C)(C)NC(=O)[C@H](CCC(N)=O)NC(=O)[C@H](C)NC(=O)[C@H](CCCCNC(=O)COCCOCCNC(=O)COCCOCCNC(=O)CC[C@H](NC(=O)CCCCCCCCCCCCCCCCC(=O)O)C(=O)O)NC(=O)[C@H](CCCCN)NC(=O)[C@H](CC(=O)O)NC(=O)[C@H](CC(C)C)NC(=O)[C@H](CC(C)C)NC(=O)[C@@H](NC(=O)[C@H](CO)NC(=O)[C@H](Cc1ccc(O)cc1)NC(=O)[C@H](CC(=O)O)NC(=O)[C@H](CO)NC(=O)[C@@H](NC(=O)[C@H](Cc1ccccc1)NC(=O)[C@@H](NC(=O)CNC(=O)[C@H](CCC(=O)O)NC(=O)C(C)(C)NC(=O)[C@@H](N)Cc1ccc(O)cc1)[C@@H](C)O)[C@@H](C)O)[C@@H](C)CC)C(=O)N[C@@H](CCC(=O)O)C(=O)NCC(=O)NCC(=O)N1CCC[C@H]1C(=O)N[C@@H](CO)C(=O)N[C@@H](CO)C(=O)NCC(N)=O
B3: Example 300 (peptide)
peptide: YXEGTFTSDYSIXLDKKAQXAFIEYLIEGGPSSG
modifications: Aib2, αMeL13, (2-[2-(2-Amino-ethoxy)-ethoxy]-acetyl)2-(γ-Glu)-CO-(CH2)16-CO2H on K17, Aib20, C-terminal NH2
B4: Example 304 (peptide)
peptide: B3 peptide with A21E
modifications: Aib2, αMeL13, (2-[2-(2-Amino-ethoxy)-ethoxy]-acetyl)2-(γ-Glu)-CO-(CH2)16-CO2H on K17, Aib20, C-terminal NH2
B5: Example 310 (peptide)
peptide: B3 peptide with F6X, X13L, A21E, E28A
modifications: Aib2, αMeF6, (2-[2-(2-Amino-ethoxy)-ethoxy]-acetyl)2-(γ-Glu)-CO-(CH2)16-CO2H on K17, Aib20, C-terminal NH2
B6: Example 308 (peptide)
peptide: B3 peptide with F6X, X13L, A21E
modifications: Aib2, αMeF6, (2-[2-(2-Amino-ethoxy)-ethoxy]-acetyl)2-(γ-Glu)-CO-(CH2)16-CO2H on K17, Aib20, C-terminal NH2
B7: Example 306 (peptide)
peptide: B3 peptide with A21E, E28A
modifications: Aib2, αMeL13, (2-[2-(2-Amino-ethoxy)-ethoxy]-acetyl)2-(γ-Glu)-CO-(CH2)16-CO2H on K17, Aib20, C-terminal NH2
B8: Example 312 (peptide)
peptide: B3 peptide with F6X, X13L, A21E
modifications: Aib2, αMeF(2F)6, (2-[2-(2-Amino-ethoxy)-ethoxy]-acetyl)2-(γ-Glu)-CO-(CH2)16-CO2H on K17, Aib20, C-terminal NH2
B9: Example 313 (peptide)
peptide: B3 peptide with F6X, X13L, E28A
modifications: Aib2, αMeF(2F)6, (2-[2-(2-Amino-ethoxy)-ethoxy]-acetyl)2-(γ-Glu)-CO-(CH2)16-CO2H on K17, Aib20, C-terminal NH2
B10: Example 311 (peptide)
peptide: B3 peptide with F6X, X13L, K16E
modifications: Aib2, αMeF(2F)6, (2-[2-(2-Amino-ethoxy)-ethoxy]-acetyl)2-(γ-Glu)-CO-(CH2)16-CO2H on K17, Aib20, C-terminal NH2
B11: Example 309 (peptide)
peptide: B3 peptide with F6X, X13L, E28A
modifications: Aib2, αMeF6, (2-[2-(2-Amino-ethoxy)-ethoxy]-acetyl)2-(γ-Glu)-CO-(CH2)16-CO2H on K17, Aib20, C-terminal NH2
B12: Example 307 (peptide)
peptide: B3 peptide with F6X, X13L, K16E
modifications: Aib2, αMeF6, (2-[2-(2-Amino-ethoxy)-ethoxy]-acetyl)2-(γ-Glu)-CO-(CH2)16-CO2H on K17, Aib20, C-terminal NH2
B13: Example 302 (peptide)
peptide: B3 peptide with F6X, X13L
modifications: Aib2, αMeF(2F)6, (2-[2-(2-Amino-ethoxy)-ethoxy]-acetyl)2-(γ-Glu)-CO-(CH2)16-CO2H on K17, Aib20, C-terminal NH2
B14: Example 314 (peptide)
peptide: B3 peptide with F6X, X13L, A21E, E28A
modifications: Aib2, αMeF(2F)6, (2-[2-(2-Amino-ethoxy)-ethoxy]-acetyl)2-(γ-Glu)-CO-(CH2)16-CO2H on K17, Aib20, C-terminal NH2
B15: Example 303 (peptide)
peptide: B3 peptide with K16E
modifications: Aib2, αMeL13, (2-[2-(2-Amino-ethoxy)-ethoxy]-acetyl)2-(γ-Glu)-CO-(CH2)16-CO2H on K17, Aib20, C-terminal NH2
B16: Example 301 (peptide)
peptide: B3 peptide with F6X, X13L
modifications: Aib2, αMeF6, (2-[2-(2-Amino-ethoxy)-ethoxy]-acetyl)2-(γ-Glu)-CO-(CH2)16-CO2H on K17, Aib20, C-terminal NH2
B17: Example 297 (peptide)
peptide: Y[Aib]EGTFTSDYSILLDKK([AEEA-AEEA-γGlu-C18 diacid])AQ[Aib]EFIEYLIAGG-NH2
modifications: N-terminus assumed
SMILES: CC[C@H](C)[C@H](NC(=O)[C@H](CC(C)C)NC(=O)[C@H](Cc1ccc(O)cc1)NC(=O)[C@H](CCC(=O)O)NC(=O)[C@@H](NC(=O)[C@H](Cc1ccccc1)NC(=O)[C@H](CCC(=O)O)NC(=O)C(C)(C)NC(=O)[C@H](CCC(N)=O)NC(=O)[C@H](C)NC(=O)[C@H](CCCCNC(=O)COCCOCCNC(=O)COCCOCCNC(=O)CC[C@H](NC(=O)CCCCCCCCCCCCCCCCC(=O)O)C(=O)O)NC(=O)[C@H](CCCCN)NC(=O)[C@H](CC(=O)O)NC(=O)[C@H](CC(C)C)NC(=O)[C@H](CC(C)C)NC(=O)[C@@H](NC(=O)[C@H](CO)NC(=O)[C@H](Cc1ccc(O)cc1)NC(=O)[C@H](CC(=O)O)NC(=O)[C@H](CO)NC(=O)[C@@H](NC(=O)[C@H](Cc1ccccc1)NC(=O)[C@@H](NC(=O)CNC(=O)[C@H](CCC(=O)O)NC(=O)C(C)(C)NC(=O)[C@@H](N)Cc1ccc(O)cc1)[C@@H](C)O)[C@@H](C)O)[C@@H](C)CC)[C@@H](C)CC)C(=O)N[C@@H](C)C(=O)NCC(=O)NCC(N)=O
B18: Example 298 (peptide)
peptide: Y[Aib]EGTFTSDYSILLDKK([AEEA-AEEA-γGlu-C18 diacid])AQ[Aib]AFVEYLIEGGPSSG-NH2
modifications: N-terminus assumed
SMILES: CC[C@H](C)[C@H](NC(=O)[C@H](CC(C)C)NC(=O)[C@H](Cc1ccc(O)cc1)NC(=O)[C@H](CCC(=O)O)NC(=O)[C@@H](NC(=O)[C@H](Cc1ccccc1)NC(=O)[C@H](C)NC(=O)C(C)(C)NC(=O)[C@H](CCC(N)=O)NC(=O)[C@H](C)NC(=O)[C@H](CCCCNC(=O)COCCOCCNC(=O)COCCOCCNC(=O)CC[C@H](NC(=O)CCCCCCCCCCCCCCCCC(=O)O)C(=O)O)NC(=O)[C@H](CCCCN)NC(=O)[C@H](CC(=O)O)NC(=O)[C@H](CC(C)C)NC(=O)[C@H](CC(C)C)NC(=O)[C@@H](NC(=O)[C@H](CO)NC(=O)[C@H](Cc1ccc(O)cc1)NC(=O)[C@H](CC(=O)O)NC(=O)[C@H](CO)NC(=O)[C@@H](NC(=O)[C@H](Cc1ccccc1)NC(=O)[C@@H](NC(=O)CNC(=O)[C@H](CCC(=O)O)NC(=O)C(C)(C)NC(=O)[C@@H](N)Cc1ccc(O)cc1)[C@@H](C)O)[C@@H](C)O)[C@@H](C)CC)C(C)C)C(=O)N[C@@H](CCC(=O)O)C(=O)NCC(=O)NCC(=O)N1CCC[C@H]1C(=O)N[C@@H](CO)C(=O)N[C@@H](CO)C(=O)NCC(N)=O

What follows are binders tested against human GLP-1 receptor (GLP-1R) (human, UniProt P43220 24-463) (assay: cell-based or functional assay).

Binder | hGLP1R cAMP Rel EC50 [nM] | hGLP1R cAMP EC50 ratio
B1 | 0.0651 | 
B2 | 2.54 | 0.0244
B3 | 0.0867 | 0.636
B4 | 0.191 | 0.481
B5 | 0.0283 | 1.43
B6 | 0.0392 | 1.45
B7 | 0.0711 | 0.912
B8 | 0.0262 | 1.53
B9 | 0.0388 | 0.867
B10 | 0.0393 | 1.04
B11 | 0.033 | 1.27
B12 | 0.0437 | 1.29
B13 | 0.0275 | 1.96
B14 | 0.029 | 1.48
B15 | 0.104 | 0.602
B16 | 0.0441 | 1.61
B17 | 0.111 | 0.445
B18 | 0.0957 | 0.507

What follows are binders tested against T1, human gastric inhibitory peptide … (assay: cell-based or functional assay).

Binder | hGIPR cAMP Rel EC50 [nM] | hGIPR cAMP EC50 ratio
B1 | 0.0408 | 
B2 | 0.932 | 0.146
B3 | 0.0234 | 5.38
B4 | 0.0296 | 2.68
B5 | 0.0176 | 5.56
B6 | 0.0262 | 4.06
B7 | 0.0191 | 3.97
B8 | 0.0207 | 4.76
B9 | 0.0233 | 2.87
B10 | 0.0334 | 3.5
B11 | 0.0389 | 1.64
B12 | 0.0285 | 2.48
B13 | 0.0308 | 3.78
B14 | 0.029 | 2.81
B15 | 0.0254 | 4.2
B16 | 0.0346 | 4.11
B17 | 0.0451 | 3
B18 | 0.043 | 2.87
